To fix the notation:
B1: UGT 2B7 (Homo sapiens) (protein)
chain: GKVLVWAAEYSHWMNIKTILDELIQRGHEVTVLASSASILFDPNNSSALKIEIYPTSLTKTELENFIMQQIKRWSDLPKDTFWLYFSQVQEIMSIFGDITRKFCKDVVSNKKFMKKVQESRFDVIFADAIFPCSELLAELFNIPFVYSLSFSPGYTFEKHSGGFIFPPSYVPVVMSELTDQMTFMERVKNMIYVLYFDFWFEIFDMKKWDQFYSEVLGRPTTLSETMGKADVWLIRNSWNFQFPYPLLPNVDFVGGLHCKPAKPLPKEMEDFVQSSGENGVVVFSLGSMVSNMTEERANVIASALAQIPQKVLWRFDGNKPDTLGLNTRLYKWIPQNDLLGHPKTRAFITHGGANGIYEAIYHGIPMVGIPLFADQPDNIAHMKARGAAVRVDFNTMSSTDLLNALKRVINDPSYKENVMKLSRIQHDQPVKPLDRAVFWIEFVMRHKGAKHLRVAAHDLTWFQYHSLDVIGFLLVCVATVIFIVTKCCLFCFWKFARKAKKGKND
B2: UGT 1A8 (Homo sapiens) (protein)
chain: GKLLVVPMDGSHWFTMQSVVEKLILRGHEVVVVMPEVSWQLGKSLNCTVKTYSTSYTLEDLDREFMDFADAQWKAQVRSLFSLFLSSSNGFFNLFFSHCRSLFNDRKLVEYLKESSFDAVFLDPFDACGLIVAKYFSLPSVVFARGIACHYLEEGAQCPAPLSYVPRILLGFSDAMTFKERVRNHIMHLEEHLFCQYFSKNALEIASEILQTPVTAYDLYSHTSIWLLRTDFVLDYPKPVMPNMIFIGGINCHQGKPLPMEFEAYINASGEHGIVVFSLGSMVSEIPEKKAMAIADALGKIPQTVLWRYTGTRPSNLANNTILVKWLPQNDLLGHPMTRAFITHAGSHGVYESICNGVPMVMMPLFGDQMDNAKRMETKGAGVTLNVLEMTSEDLENALKAVINDKSYKENIMRLSSLHKDRPVEPLDLAVFWVEFVMRHKGAPHLRPAAHDLTWYQYHSLDVIGFLLAVVLTVAFITFKCCAYGYRKCLGKKGRVKKAHKSKTH
B3: UGT 1A9 (Homo sapiens) (protein)
chain: GKLLVVPMDGSHWFTMRSVVEKLILRGHEVVVVMPEVSWQLGRSLNCTVKTYSTSYTLEDLDREFKAFAHAQWKAQVRSIYSLLMGSYNDIFDLFFSNCRSLFKDKKLVEYLKESSFDAVFLDPFDNCGLIVAKYFSLPSVVFARGILCHYLEEGAQCPAPLSYVPRILLGFSDAMTFKERVRNHIMHLEEHLLCHRFFKNALEIASEILQTPVTEYDLYSHTSIWLLRTDFVLDYPKPVMPNMIFIGGINCHQGKPLPMEFEAYINASGEHGIVVFSLGSMVSEIPEKKAMAIADALGKIPQTVLWRYTGTRPSNLANNTILVKWLPQNDLLGHPMTRAFITHAGSHGVYESICNGVPMVMMPLFGDQMDNAKRMETKGAGVTLNVLEMTSEDLENALKAVINDKSYKENIMRLSSLHKDRPVEPLDLAVFWVEFVMRHKGAPHLRPAAHDLTWYQYHSLDVIGFLLAVVLTVAFITFKCCAYGYRKCLGKKGRVKKAHKSKTH
B4: UGT 1A1 (Homo sapiens) (protein)
chain: HAGKILLIPVDGSHWLSMLGAIQQLQQRGHEIVVLAPDASLYIRDGAFYTLKTYPVPFQREDVKESFVSLGHNVFENDSFLQRVIKTYKKIKKDSAMLLSGCSHLLHNKELMASLAESSFDVMLTDPFLPCSPIVAQYLSLPTVFFLHALPCSLEFEATQCPNPFSYVPRPLSSHSDHMTFLQRVKNMLIAFSQNFLCDVVYSPYATLASEFLQREVTVQDLLSSASVWLFRSDFVKDYPRPIMPNMVFVGGINCLHQNPLSQEFEAYINASGEHGIVVFSLGSMVSEIPEKKAMAIADALGKIPQTVLWRYTGTRPSNLANNTILVKWLPQNDLLGHPMTRAFITHAGSHGVYESICNGVPMVMMPLFGDQMDNAKRMETKGAGVTLNVLEMTSEDLENALKAVINDKSYKENIMRLSSLHKDRPVEPLDLAVFWVEFVMRHKGAPHLRPAAHDLTWYQYHSLDVIGFLLAVVLTVAFITFKCCAYGYRKCLGKKGRVKKAHKSKTH
B5: UGT 1A10 (Homo sapiens) (protein)
chain: GKLLVVPMDGSHWFTMQSVVEKLILRGHEVVVVMPEVSWQLERSLNCTVKTYSTSYTLEDQNREFMVFAHAQWKAQAQSIFSLLMSSSSGFLDLFFSHCRSLFNDRKLVEYLKESSFDAVFLDPFDTCGLIVAKYFSLPSVVFTRGIFCHHLEEGAQCPAPLSYVPNDLLGFSDAMTFKERVWNHIVHLEDHLFCQYLFRNALEIASEILQTPVTAYDLYSHTSIWLLRTDFVLDYPKPVMPNMIFIGGINCHQGKPLPMEFEAYINASGEHGIVVFSLGSMVSEIPEKKAMAIADALGKIPQTVLWRYTGTRPSNLANNTILVKWLPQNDLLGHPMTRAFITHAGSHGVYESICNGVPMVMMPLFGDQMDNAKRMETKGAGVTLNVLEMTSEDLENALKAVINDKSYKENIMRLSSLHKDRPVEPLDLAVFWVEFVMRHKGAPHLRPAAHDLTWYQYHSLDVIGFLLAVVLTVAFITFKCCAYGYRKCLGKKGRVKKAHKSKTH
B6: UGT 1A3 (Homo sapiens) (protein)
chain: GKVLVVPIDGSHWLSMREVLRELHARGHQAVVLTPEVNMHIKEENFFTLTTYAISWTQDEFDRHVLGHTQLYFETEHFLKKFFRSMAMLNNMSLVYHRSCVELLHNEALIRHLNATSFDVVLTDPVNLCAAVLAKYLSIPTVFFLRNIPCDLDFKGTQCPNPSSYIPRLLTTNSDHMTFMQRVKNMLYPLALSYICHAFSAPYASLASELFQREVSVVDILSHASVWLFRGDFVMDYPRPIMPNMVFIGGINCANRKPLSQEFEAYINASGEHGIVVFSLGSMVSEIPEKKAMAIADALGKIPQTVLWRYTGTRPSNLANNTILVKWLPQNDLLGHPMTRAFITHAGSHGVYESICNGVPMVMMPLFGDQMDNAKRMETKGAGVTLNVLEMTSEDLENALKAVINDKSYKENIMRLSSLHKDRPVEPLDLAVFWVEFVMRHKGAPHLRPAAHDLTWYQYHSLDVIGFLLAVVLTVAFITFKCCAYGYRKCLGKKGRVKKAHKSKTH
B7: SULT1A1*1 (Homo sapiens) (protein)
chain: MELIQDTSRPPLEYVKGVPLIKYFAEALGPLQSFQARPDDLLISTYPKSGTTWVSQILDMIYQGGDLEKCHRAPIFMRVPFLEFKAPGIPSGMETLKDTPAPRLLKTHLPLALLPQTLLDQKVKVVYVARNAKDVAVSYYHFYHMAKVHPEPGTWDSFLEKFMVGEVSYGSWYQHVQEWWELSRTHPVLYLFYEDMKENPKREIQKILEFVGRSLPEETVDFVVQHTSFKEMKKNPMTNYTTVPQEFMDHSISPFMRKGMAGDWKTTFTVAQNERFDADYAEKMAGCSLSFRSEL
B8: SULT1A1*2 (Homo sapiens; R213H) (protein)
chain: B7 chain with R213H

Positions count from the first letter of the chain named. Names may count otherwise.

Substrate in the first series: Cc1c(Cl)c(C)[n+]([O-])c(Cl)c1-c1noc(-c2cc(O)c(O)c([N+](=O)[O-])c2)n1
In words: cells, lysate or membranes named. In kind it is in vitro ADME, human. The conditions noted are these: pH 7.5; 37.0 °C.
Take B1: the Km stood at 20.6 µM.

In the case of B2, the Km was 34.8 ± 9.6 µM. Same read-out and setting: to B3 belongs 13.7 µM; to B4, 18 µM. For the protein B5, the Km came out at 64.9 ± 23.8 µM. On the same count and under the same terms, to B6 belongs 213 µM.

Substrate in the next series: Cc1c(Cl)c(C)[n+]([O-])c(Cl)c1-c1noc(-c2cc(O)c(O)c([N+](=O)[O-])c2)n1
The experiment in a line: not read. In kind it is in vitro ADME, human. The note with it: other: substrate inhibition fit; pH 7.4; 37.0 °C.
On to B7, for which the Km stood at 18.7 µM.

Regarding B8, the Km was found to be 27.3 µM.

As usually defined, the Km is the concentration of substrate that gives half-maximal velocity.

Source of the values: PMC8929358.
